Experimental data: patent US20200231538, “NOVEL COMPOUNDS AND THERAPEUTICS USES THEREOF” (Centauri Therapeutics Limited (GB/GB), published 2020)

Experiments:
EGFR [1] = target: T1, EGFR (Homo sapiens, UniProt P00533 P00533:25-1210); assay: flow; 10 nM (9.8 at 1 uM); anti-alpha-Gal IgG recruitment to A431 cells; PBS, 5 mM MgCl2, RT; details: tags: A431 cells (ATCC CRL-1555), endogenous overexpression
Experimental: (§1) A431 cells (ATCC CRL-1555) were harvested and resuspended at 5×10⁶ cells/mL in phosphate buffered saline (PBS) (Sigma D8662)+0.1% BSA (Bovine Serum Albumin—Sigma A2153)+0.1 mg/mL Yeast t-RNA (Invitrogen 15401-011)+5 mM MgCl₂ (Sigma M1028) and incubated on ice for 30 minutes to block. 5×10⁵ cells were then incubated with compound at various concentrations as described below or buffer alone at room temperature, shaking at 450 rpm for 1 hour. The cells were washed with 3×200 μL PBS+0.1% BSA, prior to adding 50 μL of Anti-alpha galactosyl IgG antibody (custom purification from human IVIG, Rockland Immunochemicals, Inc.) at 35 μg/mL in PBS+0.1% BSA and incubating at 4° C. for 1 hour. The cells were further washed with 3×200 μL PBS+0.1% BSA before being treated with 100 μL 1:40 dilution of Anti-Human IgG-PE (phycoerythrin) (Biolegend 409303) at 4° C. for 1 hour. After a final wash of 3×200 μL PBS+0.1% BSA the cells were resuspended in 200 μL PBS+0.1% BSA and evaluated on a flow cytometer (FC500 Beckman Coulter). Data from all samples were analysed in the Kaluza software package (Beckman Coulter).
(§2) The fold shift over background was calculated by dividing the Mean Fluorescence Intensity (MFI) obtained in the presence of 10 nM or 1 μM alphamer by the Mean Fluorescence Intensity (MFI) obtained in the absence of alphamer. […]

EGFR [2] = target: T1, EGFR; assay: flow; 10 nM (18.4 at 1 uM); anti-alpha-Gal IgG recruitment to A431 cells; PBS, 5 mM MgCl2, RT; details: tags: A431 cells (ATCC CRL-1555), endogenous overexpression
Experimental: as §1, §2

EGFR [3] = target: T1, EGFR; assay: flow; 10 nM (16.3 at 1 uM); anti-alpha-Gal IgG recruitment to A431 cells; PBS, 5 mM MgCl2, RT; details: tags: A431 cells (ATCC CRL-1555), endogenous overexpression
Experimental: as §1, §2

EGFR [4] = target: T1, EGFR; assay: flow; 10 nM (7.5 at 1 uM); anti-alpha-Gal IgG recruitment to A431 cells; PBS, 5 mM MgCl2, RT; details: tags: A431 cells (ATCC CRL-1555), endogenous overexpression
Experimental: as §1, §2

PSMA [5] = target: T2, PSMA (Homo sapiens, UniProt Q04609 Q04609:1-750); assay: flow; 10 nM (11.1 at 1 uM); anti-alpha-Gal IgG recruitment to LNCaP cells; PBS, 5 mM MgCl2, RT; details: tags: LNCaP cells (ATCC CRL-1740), endogenous overexpression
Experimental: as §1, with “LNCaP” for “A431”, “CRL-1740)” for “CRL-1555)”, “The cells were washed with 3×200 μL PBS+0.1% BSA, prior to adding 50 μL of Anti-alpha galactosyl IgG antibody (custom purification from human IVIG, Rockland Immunochemicals, Inc.) at 35 μg/mL in PBS+0.1% BSA and incubating at 4° C. for 1 hour.” left out
as §2, with “alphamer. The fold shift over background is reported as a geometric mean with standard error in brackets. The number of independent experiments is also reported.” for “alphamer.”

PSMA [6] = target: T2, PSMA; assay: flow; 10 nM (8.6 at 1 uM); anti-alpha-Gal IgG recruitment to LNCaP cells; PBS, 5 mM MgCl2, RT; details: tags: LNCaP cells (ATCC CRL-1740), endogenous overexpression
Experimental: as §1, with “LNCaP” for “A431”, “CRL-1740)” for “CRL-1555)”, “The cells were washed with 3×200 μL PBS+0.1% BSA, prior to adding 50 μL of Anti-alpha galactosyl IgG antibody (custom purification from human IVIG, Rockland Immunochemicals, Inc.) at 35 μg/mL in PBS+0.1% BSA and incubating at 4° C. for 1 hour.” left out
as §2, with “alphamer. The fold shift over background is reported as a geometric mean with standard error in brackets. The number of independent experiments is also reported.” for “alphamer.”

PSMA [7] = target: T2, PSMA; assay: flow; 10 nM (8.5 at 1 uM); anti-alpha-Gal IgG recruitment to LNCaP cells; PBS, 5 mM MgCl2, RT; details: tags: LNCaP cells (ATCC CRL-1740), endogenous overexpression
Experimental: as §1, with “LNCaP” for “A431”, “CRL-1740)” for “CRL-1555)”, “The cells were washed with 3×200 μL PBS+0.1% BSA, prior to adding 50 μL of Anti-alpha galactosyl IgG antibody (custom purification from human IVIG, Rockland Immunochemicals, Inc.) at 35 μg/mL in PBS+0.1% BSA and incubating at 4° C. for 1 hour.” left out
as §2, with “alphamer. The fold shift over background is reported as a geometric mean with standard error in brackets. The number of independent experiments is also reported.” for “alphamer.”

T2 sequence (Q04609 whole entry, one chain of several): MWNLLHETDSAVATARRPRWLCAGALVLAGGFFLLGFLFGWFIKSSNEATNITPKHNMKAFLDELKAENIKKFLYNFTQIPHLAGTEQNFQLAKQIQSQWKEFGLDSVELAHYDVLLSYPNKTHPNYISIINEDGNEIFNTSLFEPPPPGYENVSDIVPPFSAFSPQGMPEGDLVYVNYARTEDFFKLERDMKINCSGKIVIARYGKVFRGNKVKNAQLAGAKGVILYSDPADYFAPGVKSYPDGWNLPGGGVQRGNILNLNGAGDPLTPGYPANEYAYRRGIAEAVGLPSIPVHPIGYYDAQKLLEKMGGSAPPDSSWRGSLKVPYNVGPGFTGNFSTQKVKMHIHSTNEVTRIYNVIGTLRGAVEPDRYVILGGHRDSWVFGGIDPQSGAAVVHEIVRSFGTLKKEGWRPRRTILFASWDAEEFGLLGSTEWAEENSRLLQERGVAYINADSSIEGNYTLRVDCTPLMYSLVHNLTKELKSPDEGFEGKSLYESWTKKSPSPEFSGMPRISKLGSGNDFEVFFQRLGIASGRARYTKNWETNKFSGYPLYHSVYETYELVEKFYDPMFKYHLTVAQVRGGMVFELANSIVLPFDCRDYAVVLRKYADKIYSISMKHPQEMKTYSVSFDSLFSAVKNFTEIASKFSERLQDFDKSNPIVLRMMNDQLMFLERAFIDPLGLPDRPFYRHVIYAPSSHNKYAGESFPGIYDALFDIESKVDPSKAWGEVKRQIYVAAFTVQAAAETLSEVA

B1: Example 1 (EGFR aptamer 1-alpha-Gal double cluster 1) (ssRNA)
RNA: GGGAUUUAAUCGCCGUAGAAAAGCAUGUCAAAGCCGGAACCC
modifications: 2'-F pyrimidines, 2'-OMe at most purines (mG, most mA), remaining A 2'-OH; 5' H2N-(CH2)6 linked to alpha-Gal cluster; 3' idT
binding signal (EGFR [1]): 7.7 fold MFI over background

B2: Example 2 (EGFR aptamer 1-alpha-Gal double cluster 2) (ssRNA)
RNA: GGGAUUUAAUCGCCGUAGAAAAGCAUGUCAAAGCCGGAACCC
modifications: 2'-F pyrimidines, 2'-OMe at most purines (mG, most mA), remaining A 2'-OH; 5' H2N-(CH2)6 linked to alpha-Gal cluster; 3' idT
binding signal (EGFR [2]): 10.7 fold MFI over background

B3: Example 3 (EGFR aptamer 1-alpha-Gal double cluster 3) (ssRNA)
RNA: GGGAUUUAAUCGCCGUAGAAAAGCAUGUCAAAGCCGGAACCC
modifications: 2'-F pyrimidines, 2'-OMe at most purines (mG, most mA), remaining A 2'-OH; 5' H2N-(CH2)6 linked to alpha-Gal cluster; 3' idT
binding signal (EGFR [3]): 9.7 fold MFI over background

B4: Example 4 (EGFR aptamer 1-alpha-Gal double cluster 4) (ssRNA)
RNA: GGGAUUUAAUCGCCGUAGAAAAGCAUGUCAAAGCCGGAACCC
modifications: 2'-F pyrimidines, 2'-OMe at most purines (mG, most mA), remaining A 2'-OH; 5' H2N-(CH2)6 linked to alpha-Gal cluster; 3' idT
binding signal (EGFR [4]): 3.4 fold MFI over background

B5: Example 5 (PSMA aptamer A9g-alpha-Gal double cluster 1) (ssRNA)
RNA: GGGACCGAAAAAGACCUGACUUCUAUACUAAGUCUACGUUCCC
modifications: 2'-F pyrimidines, 2'-OH purines; 5' H2N-(CH2)6 linked to alpha-Gal cluster; 3' idT
binding signal (PSMA [5]): 7.8 fold MFI over background

B6: Example 7 (PSMA aptamer A9g-alpha-Gal double cluster 2) (ssRNA)
RNA: GGGACCGAAAAAGACCUGACUUCUAUACUAAGUCUACGUUCCC
modifications: 2'-F pyrimidines, 2'-OH purines; 5' H2N-(CH2)6 linked to alpha-Gal cluster; 3' idT
binding signal (PSMA [6]): 3.82 fold MFI over background

B7: Example 6 (PSMA aptamer A9g-alpha-Gal double cluster 5) (ssRNA)
RNA: GGGACCGAAAAAGACCUGACUUCUAUACUAAGUCUACGUUCCC
modifications: 2'-F pyrimidines, 2'-OH purines; 5' H2N-(CH2)6 linked to alpha-Gal cluster; 3' idT
binding signal (PSMA [7]): 5.33 fold MFI over background
